± gives the standard deviation of the averaged measurements.
test system: Saccharomyces cerevisiae; experiment: protein stability index of tFT-peptide fusion (C-terminal peptide) (PSI (0-1 scale)); higher = more stable (slower turnover); settings: genetic background: wild type; temperature: 30 C
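Note: PSI is a weighted mean of sequencing reads over stability bins, variants kept only with over 10 reads, mCherry proximal and sfGFP distal, peptide attached via GGGS linker.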

Sequence | protein stability index
PLPPLTPASPHP | 0.72 ± 0.035
PLPPPLPASSPP | 0.681 ± 0.045
PLPPPLPLSSPP | 0.67 ± 0.012
PLPPPPAHPPPP | 0.616 ± 0.03
PLPPPPPLPLSP | 0.693 ± 0.07
PLPPPPPPIPLT | 0.702 ± 0.14
PLPPPPPPPSSP | 0.726 ± 0.011
PLPPPPVSLPAP | 0.617 ± 0.064
PLPPRPHPPPPY | 0.695 ± 0.037
PLPPRPPPLPLP | 0.716 ± 0.013
PLPPTPPPALSQ | 0.7 ± 0.018
PLPRLPLLPPLR | 0.67 ± 0.045
PLPSCTLCRPAL | 0.695 ± 0.03
PLPSLSPLPPPL | 0.701 ± 0.017
PLPSPSYLKSPC | 0.705 ± 0.013
PLPSVLFCLTRW | 0.665 ± 0.02
PLPTLPFPCSPS | 0.706 ± 0.016
PLPVLFFFSACS | 0.661 ± 0.043
PLRISQLDVVRS | 0.655 ± 0.045
PLRPLPTPRPPP | 0.686 ± 0.0071
PLRYRPPPPPPP | 0.672 ± 0.031
PLSCFIPPVSSW | 0.666 ± 0.027
PLSPLAPPPAPS | 0.661 ± 0.075

Sequence | protein stability index
PLSPNIHQRPPA | 0.75 ± 0.0096
PLSPPPPFPFPP | 0.71 ± 0.064
PLSPPVSLPLTP | 0.672 ± 0.098
PLSPSAVGCPGF | 0.645 ± 0.16
PLSPSFAPPSPA | 0.69672 ± 0.00044
PLSPTTRTRSQS | 0.642 ± 0.067
PLSTGLPFPRSP | 0.718 ± 0.028
PLTACPSAPTLP | 0.667 ± 0.0078
PLTGSLIPLFPL | 0.732 ± 0.029
PLTPPRLPRPFH | 0.7123 ± 0.0065
PLVAGRVIVTLR | 0.554 ± 0.011
PLVPISPLPYLP | 0.737 ± 0.012
PLVPPPADPLCV | 0.63 ± 0.0071
PLVRGSLGALGR | 0.657 ± 0.12
PLYSKHPTRFFP | 0.714 ± 0.011
PLYTSFSPSFYL | 0.669 ± 0.043
PMFESFHLPAPI | 0.715 ± 0.018
PNAFTEPTHPGR | 0.742 ± 0.066
PNFYPLWLNLPL | 0.813 ± 0.086
PNLIFHHSFSFL | 0.692 ± 0.031
PNPTPYRRPCPP | 0.6846 ± 0.0041
PNTSVAATPHDF | 0.67 ± 0.085
PNVSPTPPYSSP | 0.691 ± 0.023

Sequence | protein stability index
PNYQRRTKTNSP | 0.703 ± 0.04
PPAALPPSTLFS | 0.673 ± 0.04
PPAFFPHSRPLL | 0.598 ± 0.038
PPAGCSPSPRSP | 0.66 ± 0.056
PPALPPTRPPVS | 0.696 ± 0.047
PPALRPNPPLPL | 0.7769 ± 0.0016
PPAPLPSPRRSL | 0.696 ± 0.065
PPAPPPPLLNLP | 0.714 ± 0.014
PPAPPTSLPSPL | 0.726 ± 0.019
PPAPSPPQPSPL | 0.686 ± 0.0088
PPAPSPPVPPQL | 0.727 ± 0.026
PPAPSSLPSPPS | 0.715 ± 0.017
PPAPTPLSPLAS | 0.693 ± 0.051
PPAPTPSPSPPP | 0.68 ± 0.1
PPARATPHDRCP | 0.724 ± 0.037
PPASLPPPTAFN | 0.764 ± 0.049
PPASLRRPRSYL | 0.748 ± 0.025
PPASPSPSLLSP | 0.6491 ± 0.0025
PPASSPPSRPPP | 0.62626 ± 0.00058
PPATPPPPPPFL | 0.68 ± 0.15
PPATPPRPLLPP | 0.672 ± 0.091
PPCPVTSFRPSI | 0.755 ± 0.05
PPDPPPHASPAP | 0.72 ± 0.03

Sequence | protein stability index
PPDRNPANTSCD | 0.638 ± 0.029
PPFPPDTLPLLP | 0.746 ± 0.017
PPFPPPCFPPPL | 0.72 ± 0.0084
PPFRPFTSPVTY | 0.579 ± 0.031
PPFSPSPPHVCP | 0.673 ± 0.045
PPFVLLVPTSLS | 0.68 ± 0.018
PPGLPLSPCPPP | 0.685 ± 0.061
PPGSFWLQARVR | 0.705 ± 0.071
PPGYGISYLLIE | 0.66 ± 0.07
PPHAYTSTPSLF | 0.67 ± 0.028
PPHGPPPLPPPS | 0.678 ± 0.15
PPHIIPHPKAHT | 0.687 ± 0.017
PPHLPPPPSPSV | 0.6729 ± 0.0053
PPHPAPPLQPQT | 0.64 ± 0.14
PPHPPPVTPHAS | 0.722 ± 0.029
PPHPPRCRRSPC | 0.718 ± 0.037
PPHPPYPPQPSL | 0.7021 ± 0.005
PPHPQRANAPGH | 0.6615 ± 0.0057
PPHTSPLSPRPP | 0.658 ± 0.052
PPIPLPPLAPPL | 0.699 ± 0.038
PPLALLLSPVPP | 0.688 ± 0.046
PPLAPASPSPLP | 0.698 ± 0.023
PPLCTTPTPRRV | 0.735 ± 0.041

Sequence | protein stability index
PPLFPPPPPLPR | 0.718 ± 0.027
PPLFTLSFSHFV | 0.679 ± 0.021
PPLHPPLPPPPS | 0.71 ± 0.06
PPLLALSASRVT | 0.698 ± 0.017
PPLLLLRRRSPS | 0.699 ± 0.062
PPLLPPPPPPAP | 0.666 ± 0.032
PPLLPYHPTRFD | 0.713 ± 0.012
PPLLRAPLLPPC | 0.708 ± 0.021
PPLPAPPPLRPP | 0.606 ± 0.012
PPLPAPSPPAPP | 0.68 ± 0.022
PPLPDSPPPVPP | 0.633 ± 0.017
PPLPFPSLPTPP | 0.696 ± 0.042
PPLPLPPLALTR | 0.722 ± 0.037
PPLPLPPRPTPP | 0.716 ± 0.071
PPLPPLSPAPPR | 0.681 ± 0.0073
PPLPPPHLAFLH | 0.685 ± 0.035
PPLPPPIPLRPP | 0.539 ± 0.02
PPLPPPLPHRPL | 0.716 ± 0.078
PPLPPPPLLPAP | 0.726 ± 0.019
PPLPPPPSPALL | 0.75 ± 0.019
PPLPPPTPRPAP | 0.754 ± 0.058
PPLPPPVYHSLP | 0.6855 ± 0.0027
PPLPRPPLPTSL | 0.649 ± 0.045

Sequence | protein stability index
PPLPYPCPPVFV | 0.581 ± 0.012
PPLRPPAPEPSP | 0.659 ± 0.0092
PPLSHPPPPLPL | 0.681 ± 0.037
PPLSLRPDLPVF | 0.649 ± 0.0098
PPLSPPHRPPHS | 0.71 ± 0.065
PPLSPSLPPSPS | 0.681 ± 0.0089
PPLTSSVCFSLI | 0.665 ± 0.098
PPNGAATTQDRL | 0.699 ± 0.011
PPNPSTPSACPP | 0.717 ± 0.052
PPPAPLPLPAST | 0.645 ± 0.019
PPPAPLRSLSTP | 0.701 ± 0.024
PPPAPPPPLPPR | 0.688 ± 0.028
PPPAPRPPLSLP | 0.621 ± 0.017
PPPAPSPLPLFP | 0.7 ± 0.045
PPPAPTQTALPP | 0.7028 ± 0.0057
PPPATNSLPGFE | 0.672 ± 0.0099
PPPAWTPPPRTA | 0.7163 ± 0.001
PPPDHSPPPCPP | 0.6857 ± 0.0037
PPPDSSLPLGSP | 0.688 ± 0.0081
PPPGPLFPSFPL | 0.663 ± 0.051
PPPGPNPPSSPS | 0.758 ± 0.036
PPPGPRQRPPPH | 0.665 ± 0.087
PPPHASLSHCHS | 0.687 ± 0.11

Sequence | protein stability index
PPPHGPPPPPLP | 0.648 ± 0.055
PPPHHPIMPAKQ | 0.63 ± 0.027
PPPHPPLPTFDP | 0.707 ± 0.05
PPPHPPPLAIPP | 0.767 ± 0.075
PPPISPRPPRRA | 0.708 ± 0.0094
PPPLCSIPPILL | 0.705 ± 0.034
PPPLHPPPPPPA | 0.704 ± 0.037
PPPLLPHLLLPP | 0.611 ± 0.12
PPPLLSHPFLPP | 0.69 ± 0.057
PPPLPAPPFSVF | 0.649 ± 0.028
PPPLPLPPITPT | 0.53 ± 0.078
PPPLPPGPALPL | 0.732 ± 0.012
PPPLPPICTRPI | 0.627 ± 0.099
PPPLPPPILLRF | 0.598 ± 0.024
PPPLPPPPLPGL | 0.676 ± 0.0084
PPPLPPPSPCPL | 0.702 ± 0.018
PPPLPPSPLLPP | 0.701 ± 0.019
PPPLPRPFPPFP | 0.697 ± 0.019
PPPLPSPLPLPP | 0.644 ± 0.033
PPPLRLPQSRLP | 0.722 ± 0.09
PPPLSPFTTPPS | 0.7493 ± 0.00077
PPPLSQSPPSRR | 0.612 ± 0.029

From the supplement of paper PMC10724198
